Reference: patent US20100004431A1 (Xencor, published 2010)
Read-outs that look alike come from different tables or passages of the source. One block for each binder: values may come before it.

How the values were obtained:
TNFα [1] = molecular target: T1, TNFα (UniProt P01375 77-233); assay: SPR (Biacore), TNFα on CM5 chip, Fab injected
Protocol: (§1) For kinetic analysis of anti-TNFα antibodies, TNFα was coupled to an activated CM5 biosensor chip using standard NHS-EDC chemistry by injecting 200 nM TNFα at a flow rate of 2 μL/min for 10 min. […] For subsequent cycles, the chip was regenerated using pH4.0 acetate buffer. Association rates (kₒₙ) and dissociation rates (koff) were calculated using a simple one-to-one Langmuir binding model (BIAcore Evaluation Software version 3.2). The equilibrium dissociation constant (Kd) was calculated as the ratio of koff/kₒₙ.

TNFα [2] = molecular target: T1, TNFα; assay: Biacore (SPR); Fab injected over immobilized TNFα
Protocol: as §1

TNFα [3] = molecular target: T1, TNFα; assay: SPR (Biacore), TNFα on CM5 chip, Fab injected; mean of two runs ± SD
Protocol: as §1

VEGF [4] = molecular target: T2, VEGF (UniProt P15692-4 27-191, limits assumed); assay: SPR (Biacore), VEGF on CM5 chip, Fab injected
T2 sequence (P15692 other isoform, or with tags, fused parts or gaps limits assumed): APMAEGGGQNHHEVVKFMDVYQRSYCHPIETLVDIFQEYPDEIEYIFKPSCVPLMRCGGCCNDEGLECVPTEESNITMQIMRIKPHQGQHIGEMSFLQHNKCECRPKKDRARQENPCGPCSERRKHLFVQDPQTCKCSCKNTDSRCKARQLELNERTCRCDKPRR
Protocol: (§2) For kinetic analysis of anti-VEGF antibodies, VEGF was coupled to an activated CM5 biosensor chip using standard NHS-EDC chemistry by injecting 200 nM VEGF at a flow rate of 2 μL/min for 10 min. […] Association rates (kₒₙ) and dissociation rates (koff) were calculated using a simple one-to-one Langmuir binding model (BIAcore Evaluation Software version 3.2). The equilibrium dissociation constant (Kd) was calculated as the ratio of koff/kₒₙ.

VEGF [5] = molecular target: T2, VEGF; assay: Biacore (SPR); Fab injected over immobilized VEGF
Protocol: as §2

VEGF [6] = molecular target: T2, VEGF; assay: Biacore (SPR); Fab injected over immobilized VEGF; remark: listed apart in the source
Protocol: as §2

[7] = molecular target: T3, CD25 (R&D systems cat. #223-2A/CF) (UniProt P01589 22-213, limits assumed); assay: SPR (Biacore), single variant in H1L1 background
T3 construct: Bought soluble protein
T3 sequence (looked up): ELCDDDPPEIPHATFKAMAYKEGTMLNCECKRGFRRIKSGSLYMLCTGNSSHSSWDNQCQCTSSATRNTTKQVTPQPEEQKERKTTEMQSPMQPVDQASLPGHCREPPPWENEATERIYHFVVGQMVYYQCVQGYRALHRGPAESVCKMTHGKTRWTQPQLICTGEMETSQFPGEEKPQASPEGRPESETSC
Protocol: (§3) Binding was measured by injection of two-fold serial dilutions of CD25 (0 nM to 50 nM; R&D systems) in buffer at 25° C. with a flow rate of 25-30 μL/min for 2 min followed by a dissociation phase of 4-5 min. Association rates (kₒₙ) and dissociation rates (koff) were calculated using a simple one-to-one Langmuir binding model (BIAcore Evaluation Software version 3.2). The equilibrium dissociation constant (Kd) was calculated as the ratio of koff/kₒₙ).

[8] = molecular target: T3, CD25 (R&D systems cat. #223-2A/CF); assay: Biacore (SPR); antibody captured on Protein A, CD25 injected
Protocol: as §3

[9] = molecular target: T3, CD25 (R&D systems cat. #223-2A/CF); assay: as above; remark: listed apart in the source
Protocol: as §3

[10] = molecular target: T3, CD25 (R&D systems cat. #223-2A/CF); assay: Biacore blocking assay; antibody injected over CD25 coupled to a CM5 chip, then 100 nM rh-IL2; blocked ligand IL-2
Protocol: The chip was regenerated after each cycle by injection of glycine buffer @ pH 1.5 for 30 sec at 10 μL/min.

[11] = molecular target: T3, CD25 (R&D systems cat. #223-2A/CF); assay: SPR (Biacore)
Protocol: as §3

[12] = molecular target: T3, CD25 (R&D systems cat. #223-2A/CF); assay: SPR (Biacore), antibody captured on Protein A, CD25 injected; separate runs
Protocol: as §3

T1 sequence (P01375 77-233 limits assumed): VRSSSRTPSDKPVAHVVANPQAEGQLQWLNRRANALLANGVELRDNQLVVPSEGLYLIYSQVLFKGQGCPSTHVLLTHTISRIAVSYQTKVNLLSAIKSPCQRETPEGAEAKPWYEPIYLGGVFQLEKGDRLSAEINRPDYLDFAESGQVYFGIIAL

B1: Anti-TNFα H1.103L1.33 (Fab, V domains shown)
VH: EVQLVESGGGLVQPGGSLKLSCAASGFIFSNHWMNWVRQASGKGLEWVGEIRSKANNYATHYAASVKGRFTISRDDSKNTAYLQMNSLKTEDTAVYYCSRNYYGSTYDYWGQGTLVTVSS
VL: EIVLTQSPDFQSVTPKEKVTITCRASQFIGSSLHWYQQKPDQSPKLLIKYASESFSGVPSRFSGSGSGTDFTLTINSLEAEDAATYYCQQSHSWPFTFGSGTKLEIK
notes: Fab format; It has thirteen more mutations than anti-TNFα H1L1; also called anti-TNF H1.103L1.33
fold difference in affinity against the chimeric antibody anti-TNFα H0L0 (TNFα [1]): ≤ 3 fold
Fold affinity change relative to H0L0 (TNFα [2]): -1.3 fold
Kd (TNFα [3]): 3.1 nM
koff (TNFα [3]): 0.00092 s⁻¹
kon (TNFα [3]): 292000 M⁻¹ s⁻¹

B2: anti-VEGF H1.33L1.51 (Fab, V domains shown)
VH: QVQLVQSGSELKKPGASVKVSCKASGYTFTNYGMNWVRQAPGQGLEWMGWINTYTGNPTYAQGFTGRFVFSLDTSVSTAYLQISSLKAEDTAVYYCAKYPHYYGSSHWYFDVWGAGTLVTVSS
VL: DIQMTQSPSSLSASVGDRVTITCQASQDISNYLNWYQQKPGKAPKVLIYFTSSLHSGVPSRFSGSGSGTDYTLTISSLQPEDFATYYCQQYDNLPWTFGGGTKLEIK
notes: Fab format, purified by Ni-NTA chromatography
fold difference in affinity against the chimeric antibody anti-VEGF H0L0 (VEGF [4]): ≤ 3 fold
Fold change in Kd vs. H0L0 (VEGF [5]): -2.5 fold
Kd (VEGF [5]): 3.5 nM
koff (VEGF [5]): 0.00029 s⁻¹
kon (VEGF [5]): 83000 M⁻¹ s⁻¹

B3: anti-VEGF H1.33L1.55 (Fab, V domains shown)
VH: QVQLVQSGSELKKPGASVKVSCKASGYTFTNYGMNWVRQAPGQGLEWMGWINTYTGNPTYAQGFTGRFVFSLDTSVSTAYLQISSLKAEDTAVYYCAKYPHYYGSSHWYFDVWGAGTLVTVSS
VL: DIQMTQSPSSLSASVGDRVTITCQASQDISNYLNWYQQKPGKAPKVLIYFASNLETGVPSRFSGSGSGTDYTLTISSLQPEDFATYYCQQYDNLPWTFGGGTKLEIK
notes: as for B2
fold difference in affinity against the chimeric antibody anti-VEGF H0L0 (VEGF [4]): ≤ 3 fold
Fold change in Kd vs. H0L0 (VEGF [5]): -2.7 fold
Kd (VEGF [5]): 3.8 nM
koff (VEGF [5]): 0.00028 s⁻¹
kon (VEGF [5]): 80000 M⁻¹ s⁻¹
Fold affinity change relative to H0L0 (VEGF [6]): -2.7 fold

B4: anti-CD25 H1L1 single variant VH I69M (antibody, IgG1, V domains shown)
VH: QVQLVQSGAEVKKPGASVKVSCKASGYTFTSYRMHWVRQAPGQGLEWMGYINPSTGYTEYNQKFQGRVTMTADKSISTAYMELSRLRSDDTAVYYCARGGGVFDYWGQGTLVTVSS
VL: QIVLTQSPATLSLSPGERATLSCRASSSISYMHWFQQKPGQSPQLLIYTTSNLASGVPARFSGSGSGTDYTLTISSLQPEDFAVYYCHQRSTYPLTFGSGTKLEIK
notes: IgG1 format
fold increase in affinity against anti-CD25 H1L1 [7]: 2.4 fold
Kd [8]: 0.13 nM
koff [8]: 0.00026 s⁻¹
kon [8]: 2e+06 M⁻¹ s⁻¹

Now from value to binder:

Fold change in Kd vs. H0L0 [9]: 1.6 fold
Kd [9]: 0.16 nM
koff [9]: 0.00012 s⁻¹
kon [9]: 730000 M⁻¹ s⁻¹
IC50 (read off the curve) [10]: ~40 nM
B5: anti-CD25 H1.23L1.43 (antibody, IgG1, V domains shown)
VH: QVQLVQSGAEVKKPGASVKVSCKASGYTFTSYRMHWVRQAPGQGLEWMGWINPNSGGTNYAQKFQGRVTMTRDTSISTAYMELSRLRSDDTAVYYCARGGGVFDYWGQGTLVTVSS
VL: EIVLTQSPATLSLSPGERATLSCRASQSVSYLHWYQQKPGQAPRLLIYTTSNRATGIPARFSGSGSGTDYTLTISSLQPEDFAVYYCHQRSTYPLTFGSGTKLEIK
notes: IgG1 format

fold tighter binding than anti-CD25 H0L0 [11]: ~1.5 fold
Kd [9]: 0.17 nM
koff [9]: 0.00013 s⁻¹
kon [9]: 750000 M⁻¹ s⁻¹
IC50 (read off the curve) [10]: ~40 nM
B6: anti-CD25 H1.12L1.20 (antibody, V domains shown)
VH: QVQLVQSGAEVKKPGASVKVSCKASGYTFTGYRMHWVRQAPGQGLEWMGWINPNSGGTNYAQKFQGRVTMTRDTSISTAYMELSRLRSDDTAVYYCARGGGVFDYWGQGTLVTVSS
VL: EIVLTQSPATLSLSPGERATLSCRASQSVSYLHWYQQKPGQAPRLLIYTTSNRATGIPARFSGSGSGTDFTLTISSLEPEDFAVYYCHQRSTYPLTFGSGTKLEIK
notes: IgG1 format; It has twenty-two mutations against anti-CD25 H1L1; copies: 2 + 2

Kd [12]: 0.09 to 0.3 nM
Kd [8]: 0.09 nM
koff [8]: 0.00013 s⁻¹
kon [8]: 1.6e+06 M⁻¹ s⁻¹
Kd [9]: 0.26 nM
koff [9]: 0.00018 s⁻¹
kon [9]: 670000 M⁻¹ s⁻¹
IC50 (read off the curve) [10]: ~40 nM
B7: anti-CD25 H0L0 (antibody, V domains shown)
VH: QVQLQQSGAELAKPGASVKMSCKASGYTFTSYRMHWVKQRPGQGLEWIGYINPSTGYTEYNQKFKDKATLTADKSSSTAYMQLSSLTFEDSAVYYCARGGGVFDYWGQGTTLTVSS
VL: QIVLTQSPAIMSASPGEKVTITCSASSSISYMHWFQQKPGTSPKLWIYTTSNLASGVPARFSGSGSGTSYSLTISRMEAEDAATYYCHQRSTYPLTFGSGTKLELK
notes: Chimeric form of the anti-TAC antibody, in IgG1 format; also called chimeric anti-CD25 H0L0; anti-TAC H0L0
